Reference: paper PMC3634753, “A Study of the Mechanism of the Chaperone-like Function of an scFv of Human Creatine Kinase by Computer Simulation” (PLoS ONE, 2013)

How the values were obtained:
Assay in all cases: peptide or protein array; 12-mer HCK peptides, each shifted by one residue, synthesized as spots on nitrocellulose membrane; incubated with purified scFv-A4 in MP buffer (30 mM Tris-HCl, pH 7.6, 170 mM NaCl, 6.4 mM KCl, 0.05% Tween 20, 5% sucrose) overnight at 4°C; bound scFv electro-transferred onto PVDF and detected with anti-V5 antibody
Details in all cases: both partners purified
[1] = target: T1, HCK peptide segment Lys265-Asn274 (Homo sapiens, UniProt P06732)
T1 construct: human creatine kinase (HCK), segment Lys265-Asn274 covered by the positive 12-mer spots I22-I29; Each spot held a 12-mer shifted by one residue; also called spots I22-I29; source: synthetic peptide, synthesized on nitrocellulose membrane as spots
T1 chain: KKAGHPFMWN

[2] = target: T2, HCK peptide segment Glu248-Leu257 (Homo sapiens, UniProt P06732)
T2 construct: human creatine kinase (HCK), segment Glu248-Leu257 covered by the positive 12-mer spots I3-I12; Each spot held a 12-mer shifted by one residue; also called spots I3-I12; source: synthetic peptide, synthesized on nitrocellulose membrane as spots
T2 chain: EVFRRFCVGL

[3] = target: T3, HCK peptide segment Lys170-Met179 (Homo sapiens, UniProt P06732)
T3 construct: human creatine kinase (HCK), segment Lys170-Met179 covered by the positive 12-mer spots F17-F21; Each spot held a 12-mer shifted by one residue; also called spots F17-F21; source: synthetic peptide, synthesized on nitrocellulose membrane as spots
T3 chain: KGKYYPLKSM

[4] = target: T4, HCK peptide segment Asn5-Tyr14 (Homo sapiens, UniProt P06732)
T4 construct: human creatine kinase (HCK), segment Asn5-Tyr14 covered by the positive 12-mer spots A2-A6; Each spot held a 12-mer shifted by one residue; also called spots A2-A6; source: synthetic peptide, synthesized on nitrocellulose membrane as spots
T4 chain: NTHNKFKLNY

[5] = target: T5, HCK peptide segment Ser129-Lys138 (Homo sapiens, UniProt P06732)
T5 construct: human creatine kinase (HCK), segment Ser129-Lys138 covered by the positive 12-mer spots E3-E13; Each spot held a 12-mer shifted by one residue; also called spots E3-E13; source: synthetic peptide, synthesized on nitrocellulose membrane as spots
T5 chain: SRVRTGRSIK

[6] = target: T6, HCK peptide segment Thr313-Thr322 (Homo sapiens, UniProt P06732)
T6 construct: human creatine kinase (HCK), segment Thr313-Thr322 covered by the positive 12-mer spots K5-K14; Each spot held a 12-mer shifted by one residue; also called spots K5-K14; source: synthetic peptide, synthesized on nitrocellulose membrane as spots
T6 chain: TRLRLQKRGT

Measured: binding result

B1: scFv-A4 (scFv, V domains shown)
VH: QVQLVQSGAEVKKPGSSVRVSCKASGGTFSSYAISWVRQAPGQGPEWMGGIIPIFGTANYAQKFQGRVTITADESTSTAYMELSSLRSEDTAVYYCAGSSGWSMSAFDIWGQGTMVTVSS
VL: SSELTQPPSVSVAPGKTARITCGGNNIGSKSVHWYQQKPGQAPVLVIYYDSDRPSGIPERFSGSNSGNTATLTISRVEAGDEADYYCQVWDSSSDHVVFGGGTKLTVL
notes: linker segment GLY112-LYS142; without the linker, the light chain is 100% and the heavy chain 93% identical to the Fab of PDB 2DD8; also called anti-human creatine kinase single chain antibody
binds: all assays above
